Patent publication US20170173114A1, “METHODS AND COMPOSITIONS FOR INDUCTION OF UCP1 EXPRESSION” (Joslin Diabetes Center, Inc., priority 2014, published 2017)

How the values were obtained:
Assay type in all cases: cell-based, murine
UCP1 = UCP1 mRNA expression (Q-RT-PCR) in WT-1 brown preadipocytes; conditions: for expression of UCP1: 200 ng/mL with insulin and T3, three days
Procedure: (§1) Total RNA was isolated with QIAzol lysis reagent (Qiagen, Valencia, Calif.) and purified by RNeasy Mini columns (Qiagen) following the manufacture's instructions. cDNA was prepared from total RNA using the Advantage RT-PCR kit (BD Biosciences, Palo Alto, Calif.) according to manufacturer's instructions. Diluted cDNA was used in a PCR reaction with SYBR Green Master Mix (Applied Biosystems, Foster City, Calif.) and primers specifically designed for detection of the gene of interest. PCR reactions were run in duplicate for each sample and quantitated in the ABI Sequence Detection System (Applied Biosystems). Data were expressed as arbitrary units after normalization to levels of expression of internal controls for each sample. Sequences of primers for specific genes are each obtained from the published literature or designed using publically available gene sequence databases. Unless otherwise indicated, gene expression data described in the examples below was obtained using QPCR.
The effect of FGF6 on differentiation of WT-1 murine brown preadipocytes was also examined. WT-1 cells can be induced to undergo brown adipocyte differentiation, characterized by lipid accumulation and expression of adipogenic and brown fat markers, as described above (Klein et al. (1999) J Biol Chem 274:34795; Tseng et al. (2005) Nat Cell Biol 7:601). WT-1 cells were treated with FGF6 in growth media (DMEM+10% FBS), a vehicle control (“control” or “C” referred to in FIGS. 3A-D), or induction media (“induction” or “I” referred to in FIGS. 3A-D) as described above for seven days. Following the treatment, cells were examined for the color of the culture media in combination with oil Red O staining, expression of adipogenic markers, expression of brown fat markers, immunofluorescent staining of cells with UCP1 and DPAI, and Western blot analysis to determine the presence of UCP1 and β-tubulin. The results are described in FIGS. 3A to 3D.
UCP1 mRNA expression in brown adipocyte cells was determined at FGF6 concentrations ranging from 0 to 300 ng/ml in the absence of induction cocktail.
In order to determine the length of time necessary to induce UCP1 expression upon exposure to of cells to FGF6, an experiment was performed whereby FGF6 was administered to brown preadipocytes at a concentration of 200 ng/ml and UCP1 expression was determined. FGF21 and a control were also used in the time course experiment. FGF21, a member of the endocrine FGF ligands that has been implicated in the browning of white fat (Fisher F. M. et al., Genes Dev. 26:271-281, 2012). […] FGF6 could acutely induce a significant increase of UCP1 expression as early as 4 hours after a 200 ng/ml dose, as described in FIG. 4B. At 24 hours, the fold-induction of UCP1 mRNA by FGF6 reached 700-fold higher than the untreated cells, as described in FIG. 4B.
To assess FGF6's role in the regulation of mitochondrial activity, FGF6 was stably expressed in WT-1 brown preadipocytes and 3T3-F442A white preadipocytes. Stable cells were generated by viral infection followed by drug selection.
FGF2, FGF6 and FGF9 were used at a dosage of 50 ng/mL, 100 ng/mL, 200 ng/mL or 300 ng/mL. FGF21 was used at the dosage of 50 ng/ml and 500 ng/mL. The concentration of BMP7 was 3.3 nM. RNA was isolated and UCP1 and PPARγ expression levels were evaluated by quantitative reverse transcription polymerase chain reaction (Q-RT-PCR) analysis after 24 hours (i.e., 1 day) (FIG. 14A), 2 days (FIG. 14B), 5 days (FIG. 14C) and 7 days (FIG. 14D) of treatment. All experiments were performed triplicate and the data are presented as mean+/−SEM.
FGF2, FGF6 and FGF9 were used at a dosage of 200 ng/mL. FGF21 was used at a dosage of 500 ng/mL. The concentration of BMP7 was 3.3 nM. mRNA was isolated and UCP1 and PPARγ expression levels were evaluated by quantitative reverse transcription polymerase chain reaction (Q-RT-PCR) analysis after 24 hours (i.e., 1 day), 2 days, 5 days and 7 days of treatment (FIG. 15). […]

UCP1 and PTGS2 = UCP1 and PTGS2 mRNA in WT-1 cells undergoing adipocyte differentiation; conditions: after induction media; 200 ng/mL FGF or 3.3 nM BMP7, 2 days
Procedure: In a separate experiment investigating the ability of FGF proteins to induce UCP1 expression in cells undergoing adipocyte differentiation, WT-1 preadipocyte cells were differentiated by culturing in growth media supplemented with insulin (20 nM) and triiodothyronine (T3, 1 nM) for 3 days, followed by incubation in an induction media (growth medium supplemented 20 nM insulin, 1 nM T3, 0.5 mM isobutyl-methylxanthine, 5 μM dexamethasone) for 2 days. The cell were then exposed to BMP7 (3.3 nM) or 200 ng/mL of FGF2, FGF6 or, FGF9 in growth media supplemented with insulin (20 nM) and triodothyronine (T3, 1 nM) for 2 additional days. Cells were harvested and UCP1 and PTGS2 mRNA expression levels were determined according to the quantitative RT-PCR assay described above. Experiments were performed in triplicate and the data presented as mean+/−SEM.

PTGS2 (COX2) = experiment: PTGS2 mRNA / COX2 protein expression in WT-1 brown preadipocytes; conditions: for PTGS2 mRNA expression relative to the control: 200 ng/mL with insulin and T3, three days
Procedure: as §1
Cells were harvested in lysis buffer (50 mM HEPES, 137 mM NaCl, 1 mM MgCl2, 1 mM CaCl2, 10 mM Na2P2O7, 10 mM NaF, 2 mM EDTA, 10% glycerol, 1% Igepal CA-630, 2 mM vanadate, 10 μg/ml of leupeptin, 10 μg/ml of aprotinin, 2 mM phenylmethylsulfonyl fluoride; pH 7.4). After lysis, lysates were clarified by centrifugation at 12,000×g for 20 min at 4° C., the amount of protein in the supernatants was determined by the Bradford Protein Assay (Bio-Rad Laboratories, Hercules, Calif.). Proteins were directly solubilized in Laemmli sample buffer. Equal amounts of lysates were separated by sodium dodecyl sulfate-polyacrylamide gel electrophoresis and transferred to Immobolin-P membranes. Membranes were blocked overnight at 4° C. and incubated with the indicated antibody for 2 hours at room temperature. Specifically bound primary antibodies were detected with peroxidase-coupled secondary antibody and enhanced chemiluminescence (ECL, Amersham Biosciences, Piscataway, N.J.).
To determine if FGF4, FGF5, FGF6, FGF10, FGF16, FGF17, FGF18 or FGF20 induced either UCP1 mRNA or PTGS2 mRNA expression, murine brown preadipocyte WT-1 cells (Tseng et al., Nat. Cell. Biol. (2005) 7(6):601-611) were grown in growth media (DMEM-high glucose+10% FBS) supplemented with FGF4, FGF5, FGF6, FGF10, FGF16, FGF17, FGF18, FGF20 or buffer (control) in combination with insulin (20 nM) and triidothyronine (T3, 1 nM) for three days. All FGFs were used at a dosage of 200 ng/mL. mRNA was isolated and UCP1 and PTGS2 gene expression levels were evaluated by quantitative reverse transcription polymerase chain reaction (Q-RT-PCR) analysis. All experiments were performed triplicate and the data are presented as mean+/−SEM.
To determine if FGF1 or FGF10 induce UCP1 mRNA expression or PTGS2 mRNA expression, murine brown preadipocyte WT-1 cells (Tseng et al., Nat. Cell. Biol. (2005) 7(6):601-611) were grown in growth media (DMEM-high glucose+10% FBS) supplemented with FGF1, FGF10 or vehicle (control) in combination with insulin (20 nM) and triidothyronine (T3, 1 nM) for three days. FGF1 and FGF10 were used at a dosage of 50 ng/mL, 100 ng/mL or 300 ng/mL. mRNA was isolated and UCP1 and PTGS2 expression levels were evaluated by quantitative reverse transcription polymerase chain reaction (Q-RT-PCR) analysis. All experiments were performed triplicate and the data are presented as mean+/−SEM.
To test the role of specific prostaglandins (PGs) in activating UCP1 expression, WT-1 brown adipocytes were pretreated with PGE2, PGI2 and FGF6 for 24 hours. mRNA expression levels of UCP1, PTGS2, LDHA, PDK1 and PKM2 were then measured.

[1] = FGF21 50 and 500 ng/mL, BMP7 3.3 nM, with insulin and T3
[2] = 50, 100 or 300 ng/mL with insulin and T3, three days, FGF1 effect at 300 ng/ml
[3] = 50 ng/mL and 200 ng/mL with insulin and T3, three days

B1: BMP7: bone morphogenetic protein 7, rhBMP7 provided by Stryker Regenerative Medicine (protein, UniProt P18075 293-431, looked up)
Bone morphogenetic protein 7: STGSKQRSQNRSKTPKNQEALRMANVAENSSSDQRQACKKHELYVSFRDLGWQDWIIAPEGYAAYYCEGECAFPLNSYMNATNHAIVQTLVHFINPETVPKPCCAPTQLNAISVLYFDDSSNVILKKYRNMVVRACGCH
UCP1; [1]
  UCP1 expression level at day 7: only minimal amounts
  UCP1 expression level at days 1, 2 and 5: did not express detectable amounts of UCP1
UCP1 and PTGS2
  PTGS2 mRNA expression in cells undergoing adipocyte differentiation: minimal levels
  UCP1 mRNA expression in cells undergoing adipocyte differentiation: minimal levels

B2: FGF18: fibroblast growth factor 18 (protein, listed as Homo sapiens)
chain: MYSAPSACTCLCLHFLLLCFQVQVLVAEENVDFRIHVENQTRARDDVSRKQLRLYQLYSRTSGKHIQVLGRRISARGEDGDKYAQLLVETDTFGSQVRIKGKETEFYLCMNRKGKLVGKPDGTSKECVFIEKVLENNYTALMSAKYSGWYVGFTKKGRPRKGPKTRENQQDVHFMKRYPKGQPELQKPFKYTTVTKRSRRIRPTHPA
PTGS2 (COX2)
  PTGS2 mRNA expression relative to the control: increased

B3: FGF17: fibroblast growth factor 17 (protein, listed as Homo sapiens)
chain: MGAARLLPNLTLCLQLLILCCQTQGENHPSPNFNQYVRDQGAMTDQLSRRQIREYQLYSRTSGKHVQVTGRRISATAEDGNKFAKLIVETDTFGSRVRIKGAESEKYICMNKRGKLIGKPSGKSKDCVFTEIVLENNYTAFQNARHEGWFMAFTRQGRPRQASRSRQNQREAHFIKRLYQGQLPFPNHAEKQKQFEFVGSAPTRRTKRTRRPQPLT
PTGS2 (COX2)
  PTGS2 mRNA expression relative to the control: increased

B4: FGF10: fibroblast growth factor 10, keratinocyte growth factor 2 (protein, listed as Homo sapiens)
chain: MWKWILTHCASAFPHLPGCCCCCFLLLFLVSSVPVTCQALGQDMVSPEATNSSSSSFSSPSSAGRHVRSYNHLQGDVRWRKLFSFTKYFLKIEKNGKVSGTKKENCPYSILEITSVEIGVVAVKAINSNYYLAMNKKGKLYGSKEFNNDCKLKERIEENGYNTYASFNWQHNGRQMYVALNGKGAPRRGQKTRRKNTSAHFLPMVVHS
UCP1
  expression of UCP1: not induced
UCP1; [2]
  UCP1 mRNA expression: did not induce expression
PTGS2 (COX2); [2]
  PTGS2 mRNA expression: did not induce expression

B5: FGF5: fibroblast growth factor 5, recombinant human, R&D Systems (protein, listed as Homo sapiens)
chain: MSLSFLLLLFFSHLILSAWAHGEKRLAPKGQPGPAATDRNPRGSSSRQSSSSAMSSSSASSSPAASLGSQGSGLEQSSFQWSPSGRRTGSLYCRVGIGFHLQIYPDGKVNGSHEANMLSVLEIFAVSQGIVGIRGVFSNKFLAMSKKGKLHASAKFTDDCKFRERFQENSYNTYASAIHRTEKTGREWYVALNKRGKAKRGCSPRVKPQHISTHFLPRFKQSEQPELSFTVTVPEKKKPPSPIKPKIPLSAPRKNTNSVKYRLKFRFG
UCP1
  expression of UCP1: not induced

B6: FGF22: fibroblast growth factor 22 (protein, listed as Homo sapiens)
chain: MRRRLWLGLAWLLLARAPDAAGTPSASRGPRSYPHLEGDVRWRRLFSSTHFFLRVDPGGRVQGTRWRHGQDSILEIRSVHVGVVVIKAVSSGFYVAMNRRGRLYGSRLYTVDCRFRERIEENGHNTYASQRWRRRGQPMFLALDRRGGPRPGGRTRRYHLSAHFLPVLVS
UCP1; [3]
  UCP1 mRNA expression: not detectably induced

B7: FGF4: fibroblast growth factor 4, recombinant human, R&D Systems (protein, listed as Homo sapiens)
chain: MSGPGTAAVALLPAVLLALLAPWAGRGGAAAPTAPNGTLEAELERRWESLVALSLARLPVAAQPKEAAVQSGAGDYLLGIKRLRRLYCNVGIGFHLQALPDGRIGGAHADTRDSLLELSPVERGVVSIFGVASRFFVAMSSKGKLYGSPFFTDECTFKEILLPNNYNAYESYKYPGMFIALSKNGKTKKGNRVSPTMKVTHFLPRL
UCP1; [3]
  UCP1 mRNA expression: high levels of UCP1 mRNA expression
PTGS2 (COX2)
  PTGS2 mRNA expression relative to the control: increased
